Experimental data: article PMC4086937, “Two Modes of Regulation of the Fatty Acid Elongase ELOVL6 by the 3-Ketoacyl-CoA Reductase KAR in the Fatty Acid Elongation Cycle” (PLoS ONE, 2014)
Where a chain is given by its changes, count along the chain named. Names may count otherwise. Values belong to the molecule of their own block, whether it stands above or below them.

Columns and labels:
KAR = molecular target: T1, KAR (Homo sapiens, UniProt Q53GQ0); experiment: coupled elongation with ELOVL6, […]malonyl-CoA, TLC; assay type: biochemical; conditions: 1 mM NADPH; co-reconstituted ELOVL6; 8 µM C16:0-CoA; 27.3 µM [14C]malonyl-CoA; pH 6.8; 37 °C; 90 min
T1 construct: gene HSD17B12; N-terminal 3xFLAG, kept; HEK 293T expressed; anti-FLAG purified, co-reconstituted with ELOVL6 in POPC proteoliposomes; 36 kDa and faint N-glycosylated 39 kDa
T1 sequence (Q53GQ0 1-312): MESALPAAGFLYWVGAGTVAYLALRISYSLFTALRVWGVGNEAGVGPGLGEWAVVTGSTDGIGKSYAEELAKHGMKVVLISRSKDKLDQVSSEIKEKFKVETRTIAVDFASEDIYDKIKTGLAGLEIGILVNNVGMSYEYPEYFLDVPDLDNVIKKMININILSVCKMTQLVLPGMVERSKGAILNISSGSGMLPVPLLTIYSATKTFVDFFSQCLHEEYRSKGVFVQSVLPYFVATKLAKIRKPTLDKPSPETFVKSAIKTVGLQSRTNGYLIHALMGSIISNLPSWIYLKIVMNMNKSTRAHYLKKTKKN
T1 sequence (Q9H5J4 1-265 partner): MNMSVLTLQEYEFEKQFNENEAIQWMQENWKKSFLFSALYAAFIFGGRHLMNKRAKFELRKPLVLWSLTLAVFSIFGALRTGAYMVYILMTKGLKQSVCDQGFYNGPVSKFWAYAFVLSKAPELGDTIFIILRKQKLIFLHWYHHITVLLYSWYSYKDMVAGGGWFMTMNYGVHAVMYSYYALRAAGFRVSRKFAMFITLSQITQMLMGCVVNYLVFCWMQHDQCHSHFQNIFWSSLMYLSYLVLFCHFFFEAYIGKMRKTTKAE

[1] = molecular target: T2, 3xFLAG-ELOVL6 (fatty acid elongase ELOVL6) (human) (UniProt Q9H5J4)
T2 sequence: T1 sequence (Q9H5J4 1-265 partner)

[2] = molecular target: T2, 3xFLAG-ELOVL6 (fatty acid elongase ELOVL6) (human); remark: listed apart in the source
purified protein [3] = substrate: CC(C)(COP(=O)(O)OP(=O)(O)OC[C@H]1O[C@@H](n2cnc3c(N)ncnc32)[C@H](O)[C@@H]1OP(=O)(O)O)[C@@H](O)C(=O)NCCC(=O)NCCSC(=O)CC(=O)O; experiment: purified protein; assay type: biochemical, Homo sapiens; conditions: 8 µM C16:0-CoA, proteoliposomes, pH 6.8, 37 °C, 90 min, ELOVL6 alone, labelled compound
purified protein [4] = substrate: CCCCCCCCCCCCCCCC(=O)SCCNC(=O)CCNC(=O)[C@H](O)C(C)(C)COP(=O)(O)OP(=O)(O)OC[C@H]1O[C@@H](n2cnc3c(N)ncnc32)[C@H](O)[C@@H]1OP(=O)(O)O; experiment: purified protein; assay type: biochemical, Homo sapiens; conditions: 27.3 µM [14C]malonyl-CoA, proteoliposomes, pH 6.8, 37 °C, 90 min, ELOVL6 alone

in vitro FA elongation assay, purified ELOVL6 and KAR co-reconstituted into proteoliposomes, without NADPH: 3-ketoacyl-CoA levels compared to ELOVL6 alone [1]: 3 fold
in vitro FA elongation assay, purified ELOVL6 and wild type KAR in the same proteoliposomes, with 1 mM NADPH: product levels compared to ELOVL6 alone [1]: 8 fold
B1: 3xFLAG-KAR (3-ketoacyl-CoA reductase KAR), wild type (enzyme)
chain: T1 sequence (Q53GQ0 1-312)

in vitro FA elongation assay, purified ELOVL6 and KAR S189A co-reconstituted into proteoliposomes, with and without 1 mM NADPH: ELOVL6 activity compared to ELOVL6 alone [2]: 3 fold
B2: 3xFLAG-KAR S189A (enzyme)
chain: T1 sequence (Q53GQ0 1-312) with S189A

The next lines start with the molecule.

Molecule: NC(=O)C1=CN([C@@H]2O[C@H](COP(=O)(O)OP(=O)(O)OC[C@H]3O[C@@H](n4cnc5c(N)ncnc54)[C@H](OP(=O)(O)O)[C@@H]3O)[C@@H](O)[C@H]2O)C=CC1 [NADPH]
coupled elongation with ELOVL6, [14C]malonyl-CoA, TLC (KAR): caused production of 3-hydroxyacyl-CoA with a large increase in product levels

B3: ELOVL6 (Homo sapiens) (protein)
chain: T1 sequence (Q9H5J4 1-265 partner)
notes: N-terminal 3xFLAG, kept; HEK 293T expressed; Triton X-100 solubilized, anti-FLAG purified, reconstituted in POPC proteoliposomes; 29 kDa and N-glycosylated 32 kDa
Km (purified protein [3]): 6.46 µM
Km (purified protein [4]): 1.22 µM
